Patent US20130177570A1 (PURDUE RESEARCH FOUNDATION, published 2013)

How the values were obtained:
[1] = target: T1, recombinant human folate receptor beta (FRβ), residues 22 to 236 (human, UniProt P14207 22-236); test: ELISA, recombinant FRβ coated, Fab detected with anti-FLAG-HRP
T1 construct: Produced in SF9 insect cells with baculovirus, then purified by nickel column and gel filtration; also called recombinant FRβ; FRβ protein
Procedure: To characterize the m909 antibody, an ELISA was performed as follows. FRβ, diluted in PBS, was coated on half of the wells of a 96 well plate at 50 ng/well overnight at 4° C. Wells were blocked with 100 μl of 4% milk/PBS (MPBS) for 1 hr at 37° C. For Fab binding kinetics, Fab was titrated from 3000 nM to 0.038 nM (1:5 serial dilutions) then 50 μl of diluted Fab was added to duplicate wells. After 2 hr incubation at 37° C., the wells were washed four times with PBST (PBS+0.05% Tween 20). Bound Fab was detected by incubating with anti-FLAG-horseradish peroxidase (HRP) mAb (1:1000) (Sigma) for 1 hr at 37° C. Wells were washed again with PBST. The HRP substrate 2,2′-azino-bis(3-ethylbenzthiazoline-6-sulphonic acid) (ABTS) was added (50 μl/well), and the absorbance at 405 nm was determined. For ELISA with IgG, a goat anti-human Fc IgG conjugated with HRP was used at 1:1000. FIG. 3 is a graph depicting the binding of m909 IgG₁ to FRβ.

[2] = target: T1, recombinant human folate receptor beta …; test: phage display panning and screening on coated FRβ protein
Procedure: Purified FRβ was used for panning of a human naïve (not deliberately immunized) Fab phage library. Briefly, 2 μg of FRβ was coated on a Maxisorp plate, which was then incubated with library phage (˜10¹² pfu) for 2 hr. After extensively washing the wells with PBS+0.05% Tween 20 (PBST), phage were rescued by incubating with exponentially growing TG1 bacteria and helper phage. The panning procedure was repeated three more times with more stringent conditions in the latter two rounds, including decreased amounts of FRβ protein and additional washes with PBST. Three hundred colonies were picked from the last two rounds of panning and rescued with helper phage.

T1 sequence (P14207 other isoform, or with tags, fused parts or gaps): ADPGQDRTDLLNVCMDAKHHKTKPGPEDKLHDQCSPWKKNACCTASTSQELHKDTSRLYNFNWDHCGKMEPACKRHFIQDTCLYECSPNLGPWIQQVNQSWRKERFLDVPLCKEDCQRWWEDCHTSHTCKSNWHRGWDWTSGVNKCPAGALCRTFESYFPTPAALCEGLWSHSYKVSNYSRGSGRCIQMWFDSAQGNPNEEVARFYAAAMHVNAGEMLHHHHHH

Binder | EC50 [1] [nM] | binding result [2]
m909 Fab (Fab, V domains shown, Soluble Fab expressed in E. coli HB2151; The phagemid adds His6 and FLAG tags at the C-terminus of the Fab) VH: EVQLVQSGAEVKKPGASVKVSCKASGYTFTSYAMHWVRQAPGQRLEWMGWINAGNGNTKYSQKFQGRVTITRDTSASTAYMELSSLRSEDTAVYYCARDISYGSFDYWGQGTLVTVSS VL: SSELTQDPAVSVALGQTVRITCQGDSLRSNYANWYQQKPGQAPVLVIYGQNNRPSGIPDRFSGSSSGNTASLTITGAQAADEADYYCDSRVSTGNHVVFGGGTKLTVLG | 20 | 
m923 (Fab, V domains shown, Clone from the Fab phage library after light chain shuffling; also called clone m923) VH: EVQLVQSGAEVKKPGASVKVSCKASGYTFTSYAMHWVRQAPGQRLEWMGWINAGNGNTKYSQKFQGRVTITRDTSASTAYMELSSLRSEDTAVYYCARDISYGSFDYWGQGTLVTVSS VL: SSELTQDPAVSVALGQTVRITCQGDNLRSYYASWYRQKSGQAPVLVIYGKNNRPSGIPDRFSGSSSGNTASLTITAAQAEDEADYYCHSRKSRGNHLLFGGGTKLTVLG |  | binds
